Source: patent US20220332804A1 (CSL INNOVATION, published 2022)
Positions count from the first letter of the chain named.

Experiments:
Assay in all cases: SPR, KD relative to WT C2;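 also: biacore SPR at 37 °C, anti-C2 mAbs captured on anti-human IgG chips with alanine or serine point mutants of C2 as analyte, KD from 1:1 fit compared with wild-type C2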
human C2 T317A = target: T1, human C2 T317A (human, UniProt P06681 21-752)
T1 sequence: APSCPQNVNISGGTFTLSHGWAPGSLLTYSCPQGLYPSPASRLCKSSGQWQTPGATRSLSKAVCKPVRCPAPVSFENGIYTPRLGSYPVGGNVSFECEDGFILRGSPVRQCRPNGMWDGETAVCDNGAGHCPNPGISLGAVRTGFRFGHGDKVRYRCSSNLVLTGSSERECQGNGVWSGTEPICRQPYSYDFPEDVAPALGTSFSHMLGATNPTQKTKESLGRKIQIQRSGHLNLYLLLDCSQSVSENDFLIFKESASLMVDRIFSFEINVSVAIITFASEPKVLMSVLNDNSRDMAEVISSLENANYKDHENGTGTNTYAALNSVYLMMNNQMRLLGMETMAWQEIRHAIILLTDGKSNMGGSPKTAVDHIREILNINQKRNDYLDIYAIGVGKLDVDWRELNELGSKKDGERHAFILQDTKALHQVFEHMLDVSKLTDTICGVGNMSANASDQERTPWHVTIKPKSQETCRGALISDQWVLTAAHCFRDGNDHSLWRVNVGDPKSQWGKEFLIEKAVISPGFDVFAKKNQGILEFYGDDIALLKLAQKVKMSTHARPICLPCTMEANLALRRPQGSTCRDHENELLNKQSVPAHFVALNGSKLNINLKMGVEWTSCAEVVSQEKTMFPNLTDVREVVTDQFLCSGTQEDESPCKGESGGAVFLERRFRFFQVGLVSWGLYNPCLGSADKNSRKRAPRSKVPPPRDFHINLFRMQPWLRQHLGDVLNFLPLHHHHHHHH

human C2 G677A = target: T2, human C2 G677A (human, UniProt P06681 21-752)
T2 sequence: T1 sequence with A297T, G657A

human C2 V448A = target: T3, human C2 V448A (human, UniProt P06681 21-752)
T3 sequence: T1 sequence with A297T, V428A

human C2 M452A = target: T4, human C2 M452A (human, UniProt P06681 21-752)
T4 sequence: T1 sequence with A297T, M432A

Measured: Fold diff

B1: RF16-242 (antibody, human IgG4 S228P, lambda, V domains shown)
VH: EVQLLQSGAEVKKPGESLKISCKGSGYSFTSYWIGWVRQMPGKGLEWMGIIYPGDSDTRYSPSFQGQVTISADKSISTAYLQWSSLKASDTAMYYCARRGHYGDYFDYWGQGTLVTVSS
VL: SYELTQPPSVSVSPGQTARITCSGDALPKKYAYWYHQKSGQAPVLVIYEDRRRPSEIPERFSGSSSGTMATLTITGAQVEDEGVYFCYSRDRAGNQRVFGGGTQLTVLG
notes: pH-dependent anti-C2 antibody from a phage display library
1 fold: human C2 T317A | human C2 G677A | human C2 V448A | human C2 M452A
